# Assay results from patent US20240343800A1 (Merck KGaA, published 2024).
# Columns and labels:
# human ROR1 (on cells) [1] = target: T1, human ROR1 (on cells) (human, UniProt Q01973 30-937); test: cell-based or functional assay
# human ROR1 (on cells) [2] = target: T1, human ROR1 (on cells); test: cell-based or functional assay; remark: listed apart in the source
# human ROR1 (on cells) [3] = target: T1, human ROR1 (on cells); test: cell-based or functional assay; remark: listed apart in the source
# human ROR1 (on cells) [4] = target: T1, human ROR1 (on cells); test: cell-based or functional assay; remark: listed apart in the source
# human ROR1 (on cells) [5] = target: T1, human ROR1 (on cells); test: flow cytometry, ROR1+ MDA-MB-231 cells
# Description: (§1) After 15-minutes of incubation at room temperature, the cells were washed twice with 200 μL of PBS by centrifugation at 500×g for 5 minutes at room temperature and resuspended in […] of 10% goat serum in BD staining buffer (BD Biosciences, Cat No: 554657). […] The plates were then covered with foil to avoid direct light and incubated for 60 minutes at 4° C. […] After incubating for 30 minutes at 4° C., the cells were washed twice with 200 μL of PBS by centrifugation at 500×g for 5 minutes at room temperature and resuspended into 100 μL of fixation buffer (BioLegend, Cat No: 420801). The samples were then analyzed on a flow cytometer for binding signal using FlowJo software. ROR and CD3 binding EC₅₀s (concentration vs mean fluorescence intensity (MFI)) for reference molecules and test bispecific TCEs were obtained using 4-parameter non-linear regression curve fitting in GraphPad Prism.
# [6] = target: T2, mouse ROR1 (on 4T1 cells engineered to overexpress it) (mouse, UniProt Q9Z139 30-937); test: flow cytometry, 4T1 cells overexpressing mouse ROR1
# T2 construct: whole, on cells; also called muROR1; mROR1
# Description: as §1
# [7] = target: T3, human CD3 (on Jurkat T cells or human CD8+ T cells) (human, UniProt P07766 23-207; P09693 23-182; P04234 22-171; P20963 22-164); test: flow cytometry, human CD8+ T cells
# T3 construct: Entries are printed with signal peptides; also called huCD3; CD3ε
# T3 sequence (P07766 23-207 limits assumed, chain 1 of 4): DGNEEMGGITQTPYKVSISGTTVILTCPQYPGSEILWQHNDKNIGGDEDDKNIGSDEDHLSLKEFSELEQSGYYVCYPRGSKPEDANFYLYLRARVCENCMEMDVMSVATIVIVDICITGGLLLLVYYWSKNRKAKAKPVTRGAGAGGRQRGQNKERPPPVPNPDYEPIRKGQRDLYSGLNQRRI
# T3 sequence (P09693 23-182 limits assumed, chain 2 of 4): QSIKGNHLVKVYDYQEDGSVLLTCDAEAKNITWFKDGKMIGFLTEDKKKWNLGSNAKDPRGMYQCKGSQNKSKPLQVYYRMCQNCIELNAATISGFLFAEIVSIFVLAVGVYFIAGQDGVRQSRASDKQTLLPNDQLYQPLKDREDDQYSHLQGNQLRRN
# T3 sequence (P04234 22-171 limits assumed, chain 3 of 4): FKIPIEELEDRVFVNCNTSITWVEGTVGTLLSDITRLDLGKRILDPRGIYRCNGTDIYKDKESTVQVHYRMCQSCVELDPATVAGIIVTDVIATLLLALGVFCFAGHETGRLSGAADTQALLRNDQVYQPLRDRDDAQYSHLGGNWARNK
# T3 sequence (P20963 22-164 limits assumed, chain 4 of 4): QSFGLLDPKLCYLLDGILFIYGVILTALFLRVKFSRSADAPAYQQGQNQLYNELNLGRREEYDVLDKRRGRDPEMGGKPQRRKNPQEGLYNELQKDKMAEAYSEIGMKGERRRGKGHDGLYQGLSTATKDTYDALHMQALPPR
# Description: as §1
# [8] = target: T2, mouse ROR1 (on 4T1 cells engineered to …); test: flow cytometry; reference: human ROR1 on MDA-MB-231 cells
# [9] = target: T4, cynomolgus CD3 (on cynomolgus pan-T cells) (cynomolgus, UniProt Q95LI5 22-198); test: flow cytometry, cynomolgus pan-T cells
# T4 construct: whole, on cells
# T4 sequence (Q95LI5 22-198): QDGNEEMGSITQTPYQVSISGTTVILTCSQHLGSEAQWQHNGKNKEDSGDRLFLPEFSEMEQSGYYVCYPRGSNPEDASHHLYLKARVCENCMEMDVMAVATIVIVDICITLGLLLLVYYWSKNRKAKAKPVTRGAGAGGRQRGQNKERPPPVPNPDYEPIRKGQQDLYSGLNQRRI
# Description: as §1
binder,measurement,setting,value
"82H02 TCE #4 (sequence optimized 82H02 bispecific TCE in Format 1A, low ROR1 / low CD3 affinity) (bispecific antibody, also called 82H02 #4; 82H02 VL1.06x1F3.5-VH1.01-VL1.01) heavy 1: EVQLVESGGGLVQPGGSLKLSCAASGFTFNTYAMNWVRQASGKGLEWVGRIRSKYNNYATYYADSVKGRFTISRDDSKNTLYLQMNSLKTEDTAVYYCVRHGNFGNSYVSWFAYWGQGTMVTVSSASTKGPSVFPLAPSSKSTSGGTAALGCLVKDYFPEPVTVSWNSGALTSGVHTFPAVLQSSGLYSLSSVVTVPSSSLGTQTYICNVNHKPSNTKVDKKVEPKSCDKTHTCPPCPAPEAAGGPSVFLFPPKPKDTLMISRTPEVTCVVVDVSHEDPEVKFNWYVDGVEVHNAKTKPREEQYNSTYRVVSVLTVLHQDWLNGKEYKCKVSNKALGAPIEKTISKAKGQPFRPEVHLLPPSREEMTKNQVSLTCLARGFYPKDIAVEWESNGQPENNYKTTPSRQEPSQGTTTFAVTSKLTVDKSRWQQGNVFSCSVMHEALHNHYTQKTISLSPGK heavy 2: EIVLTQSPATLSLSPGERATLSCRASQSVSSYLAWYQQKPGQAPRLLIYDASNRATGIPARFSGSGSGTDFTLTISSLEPEDFAVYYCQQRSNWPPFTFGQGTRLEIKGGGGSGGGGSGGGGSGGGGSEVQLLESGGGLVQPGGSLRLSCAASGFTFTSYAMSWVRQAPGKGLEWVSTISGSGGGTYYTDSVKGRFTISRDNSKNTLYLQMNSLRAEDTAVYYCAQGSSIFDYWGQGTLVTVSSEPKSSDKTHTCPPCPAPEAAGGPSVFLFPPKPKDTLMISRTPEVTCVVVDVSHEDPEVKFNWYVDGVEVHNAKTKPREEQYNSTYRVVSVLTVLHQDWLNGKEYKCKVSNKALGAPIEKTISKAKGQPREPQVYTLPPPSEELALNELVTLTCLVKGFYPSDIAVEWLQGSQELPREKYLTWAPVLDSDGSFFLYSILRVAAEDWKKGDTFSCSVMHEALHNHYTQKSLDRSPGKGGGGSGGGGSGGGGSGGGGSEIVLTQSPATLSLSPGERATLSCRASQSVSSYLAWYQQKPGQAPRLLIYDASNRATGIPARFSGSGSGTDFTLTISSLEPEDFAVYYCQQRSNWPPFTFGQGTRLEIKGGGGSGGGGSGGGGSGGGGSEVQLLESGGGLVQPGGSLRLSCAASGFTFTSYAMSWVRQAPGKGLEWVSTISGSGGGTYYTDSVKGRFTISRDNSKNTLYLQMNSLRAEDTAVYYCAQGSSIFDYWGQGTLVTVSS light: QTVVTQEPSLTVSPGGTVTLTCASSTGAVTTSNYANWVQQKPGQAPRALIGGTNKRAPGTPARFSGSLLGGKAALTLSGVQPEDEAEYYCALWYSNLWVFGGGTKLTVLGQPKAAPSVTLFPPSSEELQANKATLVCLISDFYPGAVTVAWKADSSPVKAGVETTTPSKQSNNKYAASSYLSLTPEQWKSHRSYSCQVTHEGSTVEKTVAPTECS","IFNγ release AUC, PBMCs: MDA-MB-231-0.2",human ROR1 (on cells) [1],1.09e+06
same,"IFNγ release AUC, PBMCs: MDA-MB-231-0.4",human ROR1 (on cells) [1],1.42e+06
same,"IFNγ release AUC, PBMCs: MDA-MB-231-0.6",human ROR1 (on cells) [1],8.23e+06
same,"IFNγ release AUC, PBMCs: MDA-MB-231-1.3",human ROR1 (on cells) [1],4.11e+06
same,"IFNγ release AUC, PBMCs: MDA-MB-231-7",human ROR1 (on cells) [1],4.14e+06
same,"IFNγ release EC50, PBMCs: MDA-MB-231-0.2",human ROR1 (on cells) [1],0.28 nM
same,"IFNγ release EC50, PBMCs: MDA-MB-231-0.4",human ROR1 (on cells) [1],0.16 nM
same,"IFNγ release EC50, PBMCs: MDA-MB-231-0.6",human ROR1 (on cells) [1],0.121 nM
same,"IFNγ release EC50, PBMCs: MDA-MB-231-1.3",human ROR1 (on cells) [1],0.0351 nM
same,"IFNγ release EC50, PBMCs: MDA-MB-231-7",human ROR1 (on cells) [1],0.0309 nM
same,"IFNγ release Emax, PBMCs: MDA-MB-231-0.2",human ROR1 (on cells) [1],1730%
same,"IFNγ release Emax, PBMCs: MDA-MB-231-0.4",human ROR1 (on cells) [1],1840%
same,"IFNγ release Emax, PBMCs: MDA-MB-231-0.6",human ROR1 (on cells) [1],2780%
same,"IFNγ release Emax, PBMCs: MDA-MB-231-1.3",human ROR1 (on cells) [1],4560%
same,"IFNγ release Emax, PBMCs: MDA-MB-231-7",human ROR1 (on cells) [1],4480%
same,"TDCC EC50, PBMCs: MDA-MB-231",human ROR1 (on cells) [2],168 nM
same,"IFNγ release EC50, PBMCs: MDA-MB-231",human ROR1 (on cells) [3],509 nM
same,"Max IFNγ, PBMCs: MDA-MB-231",human ROR1 (on cells) [3],764 pg/mL
same,"TDCC AUC, PBMCs: MDA-MB-231-0.2",human ROR1 (on cells) [4],25900
same,"TDCC AUC, PBMCs: MDA-MB-231-0.4",human ROR1 (on cells) [4],41900
same,"TDCC AUC, PBMCs: MDA-MB-231-0.6",human ROR1 (on cells) [4],46300
same,"TDCC AUC, PBMCs: MDA-MB-231-1.3",human ROR1 (on cells) [4],58900
same,"TDCC AUC, PBMCs: MDA-MB-231-7",human ROR1 (on cells) [4],68300
same,"TDCC EC50, PBMCs: MDA-MB-231-0.2",human ROR1 (on cells) [4],0.0223 nM
same,"TDCC EC50, PBMCs: MDA-MB-231-0.4",human ROR1 (on cells) [4],0.0196 nM
same,"TDCC EC50, PBMCs: MDA-MB-231-0.6",human ROR1 (on cells) [4],0.0152 nM
same,"TDCC EC50, PBMCs: MDA-MB-231-1.3",human ROR1 (on cells) [4],0.0112 nM
same,"TDCC EC50, PBMCs: MDA-MB-231-7",human ROR1 (on cells) [4],0.00653 nM
same,"TDCC Emax, PBMCs: MDA-MB-231-0.2",human ROR1 (on cells) [4],27.4%
same,"TDCC Emax, PBMCs: MDA-MB-231-0.4",human ROR1 (on cells) [4],45%
same,"TDCC Emax, PBMCs: MDA-MB-231-0.6",human ROR1 (on cells) [4],51.5%
same,"TDCC Emax, PBMCs: MDA-MB-231-1.3",human ROR1 (on cells) [4],60.4%
same,"TDCC Emax, PBMCs: MDA-MB-231-7",human ROR1 (on cells) [4],70.3%
same,EC50,human ROR1 (on cells) [5],76.5 nM
same,EC50,[6],496 nM
same,EC50,[7],20.4 nM
same,fold difference in apparent ROR1 binding affinity between human and mouse ROR1,[8],~6.5 fold
same,EC50,[9],27.7 nM
